{"source": "paper PMC3290749", "about": "(Oncogene, 2011)", "binders": {"B1": {"name": "heparin-binding EGF like growth factor (ligand, UniProt Q99075 63-148, looked up)", "chain": "DLQEADLDLLRVTLSSKPQALATPNKEEHGKRKKKGKGLGKKRDPCLRKYKDFCIHGECKYVKELRAPSCICHPGYHGERCHGLSL"}}, "target": "IgB-1 (UniProt P00533 25-645)", "experiment": "ELISA"}
{"binder": "B1", "values": [{"measurement": "binding result", "value": "binds"}]}
